{"source": "patent US11708423B2", "about": "“Chimeric engulfment receptor molecules and methods of use” (CERO THERAPEUTICS, INC., priority 2017, dated 2023)", "molecules": {"B1": {"name": "CER123: Tim4 binding and transmembrane domains, TLR2 primary and TRAF6 secondary signaling domains; SEQ ID NO:150 (protein)", "chain": "MSKGLLLLWLVTELWWLYLTPAASEDTIIGFLGQPVTLPCHYLSWSQSRNSMCWGKGSCPNSKCNAELLRTDGTRIISRKSTKYTLLGKVQFGEVSLTISNTNRGDSGVYCCRIEVPGWFNDVKKNVRLELRRATTTKKPTTTTRPTTTPYVTTTTPELLPTTVMTTSVLPTTTPPQTLATTAFSTAVTTCPSTTPGSFSQETTKGSAFTTESETLPASNHSQRSMMTISTDIAVLRPTGSNPGILPSTSQLTTQKTTLTTSESLQKTTKSHQINSRQTILIIACCVGFVLMVLLFLAFLHRFHGLWYMKMMWAWLQAKRKPRKAPSRNICYDAFVSYSERDAYWVENLMVQELENFNPPFKLCLHKRDFIPGKWIIDNIIDSIEKSHKTVFVLSENFVKSEWCKYELDFSHFRLFDENNDAAILILLEPIEKKAIPQRFCKLRKIMNTKTYLEWPMDEAQREGFWVNLRAAIKSMSLLNCENSCGSSQSESDCCVAMASSCSAVTKDDSVGGTASTGNLSSSFMEEIQGYDVEFDPPLESKYECPICLMALREAVQTPCGHRFCKACIIKSIRDAGHKCPVDNEILLENQLFPDNFAKREILSLMVKCPNEGCLHKMELRHLEDHQAHCEFALMDCPQCQRPFQKFHINIHILKDCPRRQVSCDNCAASMAFEDKEIHDQNCPLANVICEYCNTILIREQMPNHYDLDCPTAPIPCTFSTFGCHEKMQRNHLARHLQENTQSHMRMLA", "modifications": "CER123 protein"}, "B2": {"name": "CER122: Tim4 binding and transmembrane domains, TLR2 primary and DAP12 secondary signaling domains; SEQ ID NO:149 (protein)", "chain": "MSKGLLLLWLVTELWWLYLTPAASEDTIIGFLGQPVTLPCHYLSWSQSRNSMCWGKGSCPNSKCNAELLRTDGTRIISRKSTKYTLLGKVQFGEVSLTISNTNRGDSGVYCCRIEVPGWFNDVKKNVRLELRRATTTKKPTTTTRPTTTPYVTTTTPELLPTTVMTTSVLPTTTPPQTLATTAFSTAVTTCPSTTPGSFSQETTKGSAFTTESETLPASNHSQRSMMTISTDIAVLRPTGSNPGILPSTSQLTTQKTTLTTSESLQKTTKSHQINSRQTILIIACCVGFVLMVLLFLAFLHRFHGLWYMKMMWAWLQAKRKPRKAPSRNICYDAFVSYSERDAYWVENLMVQELENFNPPFKLCLHKRDFIPGKWIIDNIIDSIEKSHKTVFVLSENFVKSEWCKYELDFSHFRLFDENNDAAILILLEPIEKKAIPQRFCKLRKIMNTKTYLEWPMDEAQREGFWVNLRAAIKSYFLGRLVPRGRGAAEAATRKQRITETESPYQELQGQRSDVYSDLNTQRPYYK", "modifications": "CER122 protein"}, "B3": {"name": "CER21: Tim4 binding and transmembrane domains, TLR8 signaling domain; SEQ ID NO:88 (protein)", "chain": "MSKGLLLLWLVTELWWLYLTPAASEDTIIGFLGQPVTLPCHYLSWSQSRNSMCWGKGSCPNSKCNAELLRTDGTRIISRKSTKYTLLGKVQFGEVSLTISNTNRGDSGVYCCRIEVPGWFNDVKKNVRLELRRATTTKKPTTTTRPTTTPYVTTTTPELLPTTVMTTSVLPTTTPPQTLATTAFSTAVTTCPSTTPGSFSQETTKGSAFTTESETLPASNHSQRSMMTISTDIAVLRPTGSNPGILPSTSQLTTQKTTLTTSESLQKTTKSHQINSRQTILIIACCVGFVLMVLLFLAFLHHLFYWDVWFIYNVCLAKVKGYRSLSTSQTFYDAYISYDTKDASVTDWVINELRYHLEESRDKNVLLCLEERDWDPGLAIIDNLMQSINQSKKTVFVLTKKYAKSWNFKTAFYLALQRLMDENMDVIIFILLEPVLQHSQYLRLRQRICKSSILQWPDNPKAEGLFWQTLRNVVLTENDSRYNNMYVDSIKQY", "modifications": "CER21 chimeric engulfment receptor"}, "B4": {"name": "CER104: Tim4 binding and transmembrane domains, TLR8 primary and DAP12 secondary signaling domains; SEQ ID NO:133 (protein)", "chain": "MSKGLLLLWLVTELWWLYLTPAASEDTIIGFLGQPVTLPCHYLSWSQSRNSMCWGKGSCPNSKCNAELLRTDGTRIISRKSTKYTLLGKVQFGEVSLTISNTNRGDSGVYCCRIEVPGWFNDVKKNVRLELRRATTTKKPTTTTRPTTTPYVTTTTPELLPTTVMTTSVLPTTTPPQTLATTAFSTAVTTCPSTTPGSFSQETTKGSAFTTESETLPASNHSQRSMMTISTDIAVLRPTGSNPGILPSTSQLTTQKTTLTTSESLQKTTKSHQINSRQTILIIACCVGFVLMVLLFLAFLHHLFYWDVWFIYNVCLAKVKGYRSLSTSQTFYDAYISYDTKDASVTDWVINELRYHLEESRDKNVLLCLEERDWDPGLAIIDNLMQSINQSKKTVFVLTKKYAKSWNFKTAFYLALQRLMDENMDVIIFILLEPVLQHSQYLRLRQRICKSSILQWPDNPKAEGLFWQTLRNVVLTENDSRYNNMYVDSIKQYYFLGRLVPRGRGAAEAATRKQRITETESPYQELQGQRSDVYSDLNTQRPYYK", "modifications": "CER104 protein"}}, "key": {"HPV E7 oncoproteins": {"system": "HPV E7 oncoproteins", "test": "Antigen cross-presentation, E6/E7 TCR NFAT-luciferase Jurkat reporter", "format": "cell-based, human", "settings": "CD4+ and CD8+ T cells after phagocytosis of SCC152 HPV+ cells, compared to mock", "excerpt": "CD4+ and CD8+CER-expressing T cell lines were established from human PBMCs. Purified T cells were transduced with lentivirus encoding CER123 (SEQ ID NO:150) and truncated EGFR (transduction marker), after activation with CD3 & CD28 microbeads, and then expanded in medium containing IL-7, IL-15, and IL-2 for 5 days. The percentage of tEGFR+ T cells ranged between 40-60%.\nA Jurkat cell line with a stable integration of an NFAT-inducible Luciferase reporter construct was utilized to study T cell responses. Human E6- and E7-specific engineered TCRs were transduced into Jurkat NFAT reporter cell lines to characterize NFAT activation upon co-culture with engineered CERs.\nFor assessing MHC-I cross-presentation, SCC152 HPV^+ cells were co-cultured overnight with CER123-expressing CD4+ and CD8+ T cells or mock-transduced (vector only) T cells in the presence of T cells expressing an E7-specific TCR. […] NFAT activation was assessed at serial time points (0, 6, 12, 24, and 72 hrs) by measuring luciferase activity in cell culture supernatants. […] Induction of E711-19 —specific Jurkat T cells were quantified by luminescence of NFAT signaling at indicated time points and compared to Mock (vector-alone) transduced T cells (FIG. 87)."}, "[1]": {"system": "A549 ALK+Luciferase+ cells", "test": "Adoptive transfer of CER T cells with ALK inhibitor in A549 ALK+ xenograft", "format": "in vivo, immunodeficient (NSG) mice", "settings": "Alectinib 15 mg/kg intraperitoneally + 10e6 CER-transduced human T cells, NSG mice", "procedure": "The combination of CER therapy and ALK inhibitor therapy was also evaluated in vivo. […] A549 ALK+Luciferase^+ cells were engrafted into immunodeficient (NSG) mice 21 days prior to initiation of study and evaluated for engraftment by bioluminescent emission and tumor volume seven days later. […] Animals received 10 μg of systemic IL-2 every 24 hours×3 days following cell infusion and then monitored for tumor progression and cell expansion and persistence thereafter.\nPeripheral blood sample was stained with anti-human CD45-APC-conjugated antibody 8 days following cell infusion. Each FACS plot indicates a single animal. A bar graph depicting frequency of human CD45+ cells/μL of peripheral blood at days 4, 8, 16, and 25 post-adoptive transfer of CER122+ T cells (FIG. 77B). Peripheral blood was obtained by retro-orbital bleeding and examined for evidence of T cell engraftment by FACS. The frequency of human-CD45 cells/μL of peripheral blood was determined by FACs using TRUCOUNT (BD Biosciences) beads."}, "human primary B cells": {"system": "human primary B cells", "test": "Gene expression profile (activation state) of CER21+ B cells", "format": "cell-based", "settings": "CD40, CD40L, RANTES, CXCL10, CXCL11, LTα, TNFa", "excerpt": "To evaluate the activation state of CER21+ human primary B cells, gene expression profiles were examined from transduced B cell populations."}, "[2]": {"system": "CER-transduced CD4+ T cells", "test": "Mass cytometry (CyTOF) with viSNE marker analysis of CER-transduced CD4+ T cells", "format": "cell-based, human", "excerpt": "CD4+ T cells were transduced with lentiviral vector comprising CER104, CER116, or CER117 nucleic acid. CER104 (SEQ ID NO:133) comprises a Tim4 binding domain, Tim4 transmembrane domain, and an engulfment signaling domain comprising a primary engulfment signaling domain comprising a TLR8 signaling domain and a secondary engulfment signaling domain comprising a DAP12 signaling domain. CER116 (SEQ ID NO:143) comprises a Tim4 binding domain, Tim4 transmembrane domain, and an engulfment signaling domain comprising a primary engulfment signaling domain comprising a TRAF6 signaling domain and a secondary engulfment signaling domain comprising a TLR8 signaling domain. CER117 (SEQ ID NO:144) comprises a Tim4 binding domain, Tim4 transmembrane domain, and an engulfment signaling domain comprising a primary engulfment signaling domain comprising a TLR8 signaling domain and a secondary engulfment signaling domain comprising a TRAF6 signaling domain. CER-transduced CD4+ T cells were co-cultured with E7 TCR-transduced CD8+ T cells and HPV+SCC152 target cells and interrogated by mass cytometry (CyTOF) with viSNE for visualization of high dimensional single cell data (FIGS. 82-84). Intact CER-transduced CD4+ T cells are shown in plots displaying tSNE1 (horizontal) and tSNE2 (vertical) axes. 27 intracellular markers were used for the viSNE analysis. Each dot represents a single cell. […] Red represents high expression and blue represents low expression for each marker. Populations of CD4^+ T cells were generated using a clustering algorithm from all 27 markers and overlaid onto the viSNE map. […] Populations of CD4^+ T cells were generated using a clustering algorithm from all 18 markers and overlaid onto the viSNE map (FIG. 83A). […] Color plots by 18 intracellular markers (CD28, CCR7, CD45RA, PD1, CD127, Perforin, CD49d, CD85j, CD38, CD27, Granzyme B, CD57, CD25, CD69, CD154, CD56, HLA-DR, and TCRγδ) show the phenotype across viSNE ‘islands’ (FIG. 83B). Red represents high expression and blue represents low expression for each marker. Highlighted region with arrow indicates cells expressing T cell activation marker CD69. Populations of CD4^+ T cells were generated using a clustering algorithm from 18 intracellular markers (CD28, CCR7, CD45RA, PD1, CD127, Perforin, CD49d, CD85j, CD38, CD27, Granzyme B, CD57, CD25, CD69, CD154, CD56, HLA-DR, and TCRγ6) and overlaid onto the viSNE map. […] Color plots by the 18 intracellular markers show the phenotype across viSNE ‘islands’ (FIG. 84B). Red represents high expression and blue represents low expression for each marker. Highlighted region with arrow indicates cells expressing the naïve T cell marker CD45RA."}}, "data": [{"molecule": "B1", "values": [{"measurement": "cross-presentation of HPV E7 oncoproteins (NFAT activation)", "setting": "HPV E7 oncoproteins", "result": "enhanced cross-presentation efficiency of HPV E7 oncoproteins"}]}, {"molecule": "B2", "values": [{"measurement": "anti-tumor response (tumor volume, bioluminescence)", "setting": "[1]", "result": "enhanced anti-tumor response to ALK+NSCLC in vivo"}]}, {"molecule": "B3", "values": [{"measurement": "activation state (B cell mRNA levels compared to transduced control B cells)", "setting": "human primary B cells", "result": "promoted B cell activation molecules and survival factors"}]}, {"molecule": "B4", "values": [{"measurement": "memory formation after antigen encounter", "setting": "[2]; CD4+ T cells", "result": "associated with memory formation after antigen encounter"}, {"measurement": "viSNE islands expressing T cell activation marker CD69", "setting": "[2]; CD4+ T cells after antigen encounter", "result": "enrichment of islands expressing the T cell activation marker CD69"}, {"measurement": "viSNE islands expressing intracellular marker IFNγ", "setting": "[2]; CD4+ T cells after co-culture with E7 TCR CD8+ T cells and SCC152 cells", "result": "enrichment of islands expressing the intracellular marker IFNγ"}, {"measurement": "viSNE islands expressing naïve T cell marker CD45RA within the CCR7+ population", "setting": "[2]; compared to controls", "result": "loss of islands expressing the naïve T cell marker CD45RA"}]}]}
